According to paper PMC5430508:

Target: 8G-AIDA receptor: eight tandemly repeated protein G C2 domains linked with AIDA, on the surface of Escherichia coli BL21 cells (BL21/8G) (not stated (streptococcal))
Assay: ELISA; bacteria coated on poly-L-lysine-treated 96-well plates (10^7 cfu/well added; about 6.7 × 10^6 cfu/well coated), blocked with 5% skim milk; HRP-conjugated goat anti-mouse IgG Fc (1 μg/mL), room temperature, 1 h; ABTS, absorbance at 405 nm

- fold of antibody trapped against BL21/1G cells: 18.9 fold
Substance: HRP-conjugated goat anti-mouse IgG Fc (antibody)
